The assay addresses human CXCR5 (human) (UniProt P32302). Nature of the assay: cell-based or functional assay.
Sequence of UniProt P32302 (P32302 whole entry): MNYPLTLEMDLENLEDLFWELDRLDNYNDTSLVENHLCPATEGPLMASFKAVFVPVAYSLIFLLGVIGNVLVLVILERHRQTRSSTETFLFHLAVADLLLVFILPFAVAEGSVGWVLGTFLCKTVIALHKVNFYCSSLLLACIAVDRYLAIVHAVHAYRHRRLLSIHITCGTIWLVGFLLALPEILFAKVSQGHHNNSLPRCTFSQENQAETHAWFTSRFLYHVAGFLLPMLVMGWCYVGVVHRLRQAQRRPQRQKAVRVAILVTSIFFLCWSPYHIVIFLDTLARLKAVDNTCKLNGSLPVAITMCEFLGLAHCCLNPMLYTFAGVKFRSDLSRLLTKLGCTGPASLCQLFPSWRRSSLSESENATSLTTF

In turn, “human CXCL13 (from UniProt O43927 23-94) (ligand)” gave a Ca-flux (FLU) at 0 nM rhCXCL13 (baseline) of 1680 FLU, a Ca-flux (FLU) at 1.95 nM rhCXCL13 of 2220 FLU, a Ca-flux (FLU) at 3.91 nM rhCXCL13 of 1840 FLU and a Ca-flux (FLU) at 7.81 nM rhCXCL13 of 1860 FLU. For the same substance, the Ca-flux (FLU) at 16 nM rhCXCL13 worked out at 6160 FLU, the Ca-flux (FLU) at 31 nM rhCXCL13 is 31100 FLU, the Ca-flux (FLU) at 63 nM rhCXCL13 was found to be 51900 FLU and the Ca-flux (FLU) at 125 nM rhCXCL13 is 74700 FLU. In addition, the Ca-flux (FLU) at 250 nM rhCXCL13 was 78400 FLU and the Ca-flux (FLU) at 500 nM rhCXCL13 turned out to be 68100 FLU.

The record behind these values is patent publication WO2012010582A1.
